Data reported in patent publication US6045793, “Recombinant ribonuclease proteins” (dated 2000).

What was measured:
Test in all cases: cell-based or functional assay
[1] = biological target: transferrin receptor on SF539 human glioma cells (human, UniProt P02786)
Native ONCONASE = biological target: T1, Native ONCONASE (Rana pipiens, pyroglutamyl amino acid residue (<Glu-1) at the amino terminus)
T1 chain: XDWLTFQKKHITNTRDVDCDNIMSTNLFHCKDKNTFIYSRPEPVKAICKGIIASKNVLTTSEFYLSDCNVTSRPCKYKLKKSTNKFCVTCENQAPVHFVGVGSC

[2] = biological target: T2, recombinant human eosinophil-derived neurotoxin (human)
T2 chain: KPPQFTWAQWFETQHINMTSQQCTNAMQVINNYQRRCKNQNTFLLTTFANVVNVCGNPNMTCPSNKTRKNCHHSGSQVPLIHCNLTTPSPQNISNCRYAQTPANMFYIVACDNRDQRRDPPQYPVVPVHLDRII

[Met-(-1)]rOnc = biological target: T3, [Met-(-1)]rOnc (Rana pipiens)
T3 chain: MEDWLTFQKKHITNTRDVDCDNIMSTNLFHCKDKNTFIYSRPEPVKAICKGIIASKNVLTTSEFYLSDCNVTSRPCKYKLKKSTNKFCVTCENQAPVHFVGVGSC

rEDN(1-21) rOnc = biological target: T4, rEDN(1-21) rOnc (human; Rana pipiens)
T4 chain: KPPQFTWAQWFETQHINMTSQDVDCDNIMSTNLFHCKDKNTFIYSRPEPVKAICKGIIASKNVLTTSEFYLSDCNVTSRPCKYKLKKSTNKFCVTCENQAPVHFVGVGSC

rEDN(1-21) rOncG26 = biological target: T5, rEDN(1-21) rOncG26 (human EDN part, Rana pipiens Onc part)
T5 chain: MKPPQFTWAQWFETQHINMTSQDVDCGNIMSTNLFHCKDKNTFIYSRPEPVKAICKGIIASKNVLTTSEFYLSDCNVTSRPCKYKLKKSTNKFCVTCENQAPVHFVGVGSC

B1: E6FB[Met-(-1)Ser]rOnc (scFv)
chain: DIKMTQSPSSMYASLGERVTFTCKASQDINNYLCWFQQKPGKSPKTLIYRANRLVDGVPSRFSGSGSGQDYSLTISSLEYEDMGIYYCLQYDEFPYTFGGGTKLEIKGGGGSGGGGSGGGGSEVQLQQSGTVLARPGASVKMSCKASGYTFSSYWMHWIKQRPGQGLDWIVAIDPRNSDTIYNPQFKHKAKLTAVTSTSTAYMELNSLTNEDSAVYYCTPLYYFDSWGQGTTLTVSSAKKLNDAQAPKSDMSDWLTFQKKHITNTRDVDCDNIMSTNLFHCKDKNTFIYSRPEPVKAICKGIIASKNVLTTSEFYLSDCNVTSRPCKYKLKKSTNKFCVTCENQAPVHFVGVGSC
IC50 (nM), inhibition of protein synthesis in SF539 human glioma cells [1]: 0.22 nM

B2: Placental ribonuclease inhibitor (other)
chain: SLDIQSLDIQCEELSDARWAELLPLLQQCQVVRLDDCGLTEARCKDISSALRVNPALAELNLRSNELGDVGVHCVLQGLQTPSCKIQKLSLQNCCLTGAGCGVLSSTLRTLPTLQELHLSDNLLGDAGLQLLCEGLLDPQCRLEKLQLEYCSLSAASCEPLASVLRAKPDFKELTVSNNDINEAGVRVLCQGLKDSPCQLEALKLESCGVTSDNCRDLCGIVASKASLRELALGSNKLGDVGMAELCPGLLHPSSRLRTLWIWECGITAKGCGDLCRVLRAKESLKELSLAGNELGDEGARLLCETLLEPGCQLESLWVKSCSFTAACCSHFSSVLAQNRFLLELQISNNRLEDAGVRELCQGLGQPGSVLRVLWLADCDVSDSSCSSLAATLLANHSLRELDLSNNCLGDAGILQLVESVRQPGCLLEQLVLYDIYWSEEMEDRLQALEKDKPSLRVIS
Fold Difference of IC50 (ng/ml) in rabbit reticulocyte lysate, (+)PRI against (-)PRI (Native ONCONASE): 1.2 fold
IC50 (ng/ml) of the RNase for inhibition of protein synthesis in rabbit reticulocyte lysate, (+)PRI (Native ONCONASE): 0.24 ng/mL
Fold Difference of IC50 (ng/ml) in rabbit reticulocyte lysate, (+)PRI against (-)PRI [2]: > 30.7 fold
Fold Difference of IC50 (ng/ml) in rabbit reticulocyte lysate, (+)PRI against (-)PRI ([Met-(-1)]rOnc): 1.4 fold
IC50 (ng/ml) of the RNase for inhibition of protein synthesis in rabbit reticulocyte lysate, (+)PRI ([Met-(-1)]rOnc): 140 ng/mL
Fold Difference of IC50 (ng/ml) in rabbit reticulocyte lysate, (+)PRI against (-)PRI (rEDN(1-21) rOnc): 2 fold
IC50 (ng/ml) of the RNase for inhibition of protein synthesis in rabbit reticulocyte lysate, (+)PRI (rEDN(1-21) rOnc): 3200 ng/mL
Fold Difference of IC50 (ng/ml) in rabbit reticulocyte lysate, (+)PRI against (-)PRI (rEDN(1-21) rOncG26): 21 fold
IC50 (ng/ml) of the RNase for inhibition of protein synthesis in rabbit reticulocyte lysate, (+)PRI (rEDN(1-21) rOncG26): 600 ng/mL

B3: [Met-(-1)Glu]rOncFBE6 (scFv)
chain: MEDWLTFQKKHITNTRDVDCDNIMSTNLFHCKDKNTFIYSRPEPVKAICKGIIASKNVLTTSEFYLSDCNVTSRPCKYKLKKSTNKFCVTCENQAPVHFVGVGSCAKKLNDAQAPKSDDIKMTQSPSSMYASLGERVTFTCKASQDINNYLCWFQQKPGKSPKTLIYRANRLVDGVPSRFSGSGSGQDYSLTISSLEYEDMGIYYCLQYDEFPYTFGGGTKLEIKGGGGSGGGGSGGGGSEVQLQQSGTVLARPGASVKMSCKASGYTFSSYWMHWIKQRPGQGLDWIVAIDPRNSDTIYNPQFKHKAKLTAVTSTSTAYMELNSLTNEDSAVYYCTPLYYFDSWGQGTTLTVSSHHH
IC50 (nM), inhibition of protein synthesis in SF539 human glioma cells [1]: 0.5 nM
